Results as given in patent US20030084466A1, “System and method for controlling male fertility” (priority 2000, published 2003).

System: Akt
Experiment: SCF-induced Akt activation (Akt in vitro kinase assay, histone H2B substrate) in primary bone marrow-derived mast cells
Format: cell-based, mouse

B1: SCF: murine stem cell factor (R & D Systems, Inc.), bivalent ligand of the Kit receptor (protein)
chain: KEICGNPVTDNVKDITKLVANLPNDYMITLNYVAGMDVLPSHCWLRDMVIQLSLSLTTLLDKFSNISEGLSNYSIIDKLGKIVDDLVLCMEENAPKNIKESPKRPETRSFTPEEFFSIFNRSIDAFKDFMVASDTSDCVLSSTLGPEKDSRVSVTKPFMLPPVA
+/+ and loxP/loxP mast cells, 100 ng/ml murine SCF, 8 minutes, 37° C.
  Akt activation: 5 fold
Y719F/Y719F mast cells, SCF stimulation
  Akt activation relative to wild type levels: 12%
